The text below walks through data of US20050202450A1 (US Dept. of Health and Human Services, published 2005).

The labels stand for the following.
B1: Gal4-HIF1α(498-574) (other)
chain: MKLLSSIEQACDICRLKKLKCSKEKPKCAKCLKNNWECRYSPKTKRSPLTRAHLTEVESRLERLEQLFLLIFPREDLDMILKMDSLQDIKALLTGLFVQDNVNKDAVTDRLASVETDMPLTLRQHRISATSSSEESSNKGQRQLTVSTPSPSDGSTRQSSPEPNSPSEYCFYVDSDMVNEFKLELVEKLFAEDTEAKNPFSTQDTDLDLEMLAPYIPMDDDFQL
B2: Gal4-HIF1α(530-573) (other)
chain: MKLLSSIEQACDICRLKKLKCSKEKPKCAKCLKNNWECRYSPKTKRSPLTRAHLTEVESRLERLEQLFLLIFPREDLDMILKMDSLQDIKALLTGLFVQDNVNKDAVTDRLASVETDMPLTLRQHRISATSSSEESSNKGQRQLTVSEFKLELVEKLFAEDTEAKNPFSTQDTDLDLEMLAPYIPMDDDFQ
B3: Gal4-HIF1α(574-603) (other)
chain: MKLLSSIEQACDICRLKKLKCSKEKPKCAKCLKNNWECRYSPKTKRSPLTRAHLTEVESRLERLEQLFLLIFPREDLDMILKMDSLQDIKALLTGLFVQDNVNKDAVTDRLASVETDMPLTLRQHRISATSSSEESSNKGQRQLTVSLRSFDQLSPLESSSASPESASPQSTVTVFQ
B4: Gal4-HIF1α(498-603) (other)
chain: MKLLSSIEQACDICRLKKLKCSKEKPKCAKCLKNNWECRYSPKTKRSPLTRAHLTEVESRLERLEQLFLLIFPREDLDMILKMDSLQDIKALLTGLFVQDNVNKDAVTDRLASVETDMPLTLRQHRISATSSSEESSNKGQRQLTVSTPSPSDGSTRQSSPEPNSPSEYCFYVDSDMVNEFKLELVEKLFAEDTEAKNPFSTQDTDLDLEMLAPYIPMDDDFQLRSFDQLSPLESSSASPESASPQSTVTVFQ
notes: also called Gal4-C-ODD; C-ODD
B5: Gal4-HIF1α(401-603) with Pro-564 mutated to alanine (other, not shown: large carriers; small tags and cut ends)
chain: APAAGDTIISLDFGSNDTETDDQQLEEVPLYNDVMLPSPNEKLQNINLAMSPLPTAETPKPLRSSADPALNQEVALKLEPNPESLELSFTMPQIQDQTPSPSDGSTRQSSPEPNSPSEYCFYVDSDMVNEFKLELVEKLFAEDTEAKNPFSTQDTDLDLEMLAAYIPMDDDFQLRSFDQLSPLESSSASPESASPQSTVTVFQ
B6: V5-tagged PHD3/HPH1 (enzyme, human, UniProt Q9H6Z9 1-239, looked up)
chain: MPLGHIMRLDLEKIALEYIVPCLHEVGFCYLDNFLGEVVGDCVLERVKQLHCTGALRDGQLAGPRAGVSKRHLRGDQITWIGGNEEGCEAISFLLSLIDRLVLYCGSRLGKYYVKERSKAMVACYPGNGTGYVRHVDNPNGDGRCITCIYYLNKNWDAKLHGGILRIFPEGKSFIADVEPIFDRLLFFWSDRRNPHEVQPSYATRYAMTVWYFDAEERAEAKKKFRNLTRKTESALTED
notes: V5/His-tagged expression plasmid; not shown: V5/His tag
B7: Gal4-HIF1α(498-603)L574S (other, not shown: large carriers; small tags and cut ends)
chain: TPSPSDGSTRQSSPEPNSPSEYCFYVDSDMVNEFKLELVEKLFAEDTEAKNPFSTQDTDLDLEMLAPYIPMDDDFQSRSFDQLSPLESSSASPESASPQSTVTVFQ
notes: also called Gal4-C-ODD L574S mutant
B8: Gal4-HIF1α(498-574)L574S (other, not shown: large carriers; small tags and cut ends)
chain: TPSPSDGSTRQSSPEPNSPSEYCFYVDSDMVNEFKLELVEKLFAEDTEAKNPFSTQDTDLDLEMLAPYIPMDDDFQS

Experiment [1] has as its target T1, VHL protein (endogenous, in Hep3B / 293 cell extracts) (UniProt P40337 1-213, limits assumed). Kind of experiment: cell-based or functional assay.
The target of experiment [2] is T2, VHL protein, HA-tagged, in vitro translated from p(HA)VHL (UniProt P40337 1-213).
T2 construct: not shown: HA tag
Kind of experiment: in vitro co-immunoprecipitation with anti-VHL, 35S-labeled Gal4 fusion.

The target in experiment [3] is T1, VHL protein (endogenous, in Hep3B / 293 …). In words: EMSA super-shift with anti-VHL, transfected 293 cells.
A further experiment deals with T3, V5-tagged PHD1/HPH3 (human, UniProt Q96KS0 1-407, limits assumed).
T3 construct: V5/His-tagged expression plasmid; not shown: V5/His tag
Kind of experiment: co-immunoprecipitation with anti-Gal4, Western blot with anti-V5, 293 cells with Cbz-LLL.

The experiment “Gal4-HIF1α(498-603)” has as its target B4. The description is as above.
Method: (§1) One microgram of each plasmid was used. After treatment with Cbz-LLL for 4 h, cells were lyzed in a buffer (35) containing 25 mM Tris (pH 7.5), 300 mM NaCl, and 1% Triton-X. The lysate was immunoprecipitated with anti-Gal4 polyclonal antibody (Santa Cruz), followed by immunoblotting with anti-V5 antibody (Invitrogen) and monoclonal anti-Gal4 antibody (Santa Cruz).
(§2) To that end, we performed co-immunoprecipitations of C-ODD with the HIF prolyl hydroxylases.
The target in the next experiment is T4, V5-tagged PHD2/HPH2 (human, UniProt Q9GZT9 1-426, limits assumed).
T4 construct: V5/His-tagged expression plasmid; also called HIF prolyl-4-hydroxylase; not shown: V5/His tag
The experiment is described as above.

T1 sequence (P40337 whole entry): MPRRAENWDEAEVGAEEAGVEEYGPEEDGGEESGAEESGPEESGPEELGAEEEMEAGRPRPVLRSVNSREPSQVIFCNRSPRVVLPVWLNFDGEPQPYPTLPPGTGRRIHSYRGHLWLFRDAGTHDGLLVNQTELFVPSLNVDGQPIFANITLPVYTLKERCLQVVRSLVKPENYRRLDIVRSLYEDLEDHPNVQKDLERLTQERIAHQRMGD
T2 sequence (P40337 whole entry): as above
T3 sequence (Q96KS0 whole entry): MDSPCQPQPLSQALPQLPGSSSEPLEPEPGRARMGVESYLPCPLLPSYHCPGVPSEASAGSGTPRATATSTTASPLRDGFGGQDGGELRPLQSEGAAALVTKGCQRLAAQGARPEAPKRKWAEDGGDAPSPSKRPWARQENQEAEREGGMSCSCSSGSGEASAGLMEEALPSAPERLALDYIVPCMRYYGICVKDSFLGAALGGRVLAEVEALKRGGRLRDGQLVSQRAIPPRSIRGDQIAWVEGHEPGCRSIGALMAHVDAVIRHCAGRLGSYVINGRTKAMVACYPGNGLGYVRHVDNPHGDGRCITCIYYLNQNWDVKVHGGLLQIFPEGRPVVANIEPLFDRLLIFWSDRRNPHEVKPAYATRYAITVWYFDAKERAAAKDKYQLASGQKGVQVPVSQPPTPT
T4 sequence (Q9GZT9 whole entry): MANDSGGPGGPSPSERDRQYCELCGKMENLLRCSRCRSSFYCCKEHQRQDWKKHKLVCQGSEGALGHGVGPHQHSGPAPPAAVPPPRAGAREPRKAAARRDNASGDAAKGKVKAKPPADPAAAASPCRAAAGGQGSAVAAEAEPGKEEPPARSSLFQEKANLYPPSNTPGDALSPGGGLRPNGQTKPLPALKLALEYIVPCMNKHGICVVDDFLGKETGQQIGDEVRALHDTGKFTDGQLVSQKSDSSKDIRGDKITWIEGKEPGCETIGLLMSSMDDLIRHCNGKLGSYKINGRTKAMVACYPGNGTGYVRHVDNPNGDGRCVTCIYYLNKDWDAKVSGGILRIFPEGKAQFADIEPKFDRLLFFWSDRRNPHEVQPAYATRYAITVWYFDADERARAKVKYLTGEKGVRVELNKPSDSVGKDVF
Method for V5-tagged PHD1/HPH3: as §1, §2
Method for V5-tagged PHD2/HPH2: as §1, §2

For B1, in experiment [1], the “Gal4 luciferase reporter activity (Hep3B cells), in comparison to Gal4-HIF1α(498-573)” value is 6.5 fold decrease and the “protein levels under normoxia (Western blot, 293 cells), in comparison to Gal4-HIF1α(498-573)” value was about 3 fold decrease.
As for B2, the binding result in experiment [2] and in experiment [3] was “no binding” in each case.
Take B3: in experiment [2], the binding result was “no binding”.
Turning to B4, the binding result in the experiment with V5-tagged PHD1/HPH3 was “no binding”.
Turning to B5, the binding result in experiment [2] is listed as “no binding”.
Consider B6, for which the binding result in the experiment with Gal4-HIF1α(498-603) is “no binding”.
In the case of B7, in experiment [2], the binding result is “no binding”. For the same molecule, in experiment [1], the “Gal4 luciferase reporter activity (Hep3B cells) under oxygenated conditions, in comparison to the wild-type” value was determined as 4.3 fold increase and the “expression level (Western blot, 293 cells), in comparison to Gal4-HIF1α(498-603)” value was determined as 7 fold increase. Moreover, in the experiment with V5-tagged PHD2/HPH2, the binding result was “no binding”.
Take B8: the binding result in experiment [2] was “no binding”.
